# B1: Retinoblastoma-associated protein (Homo sapiens), P06400 (parent)
# chain: MPPKTPRKTAATAAAAAAEPPAPPPPPPPEEDPEQDSGPEDLPLVRLEFEETEEPDFTALCQKLKIPDHVRERAWLTWEKVSSVDGVLGGYIQKKKELWGICIFIAAVDLDEMSFTFTELQKNIEISVHKFFNLLKEIDTSTKVDNAMSRLLKKYDVLFALFSKLERTCELIYLTQPSSSISTEINSALVLKVSWITFLLAKGEVLQMEDDLVISFQLMLCVLDYFIKLSPPMLLKEPYKTAVIPINGSPRTPRRGQNRSARIAKQLENDTRIIEVLCKEHECNIDEVKNVYFKNFIPFMNSLGLVTSNGLPEVENLSKRYEEIYLKNKDLDARLFLDHDKTLQTDSIDSFETQRTPRKSNLDEEVNVIPPHTPVRTVMNTIQQLMMILNSASDQPSENLISYFNNCTVNPKESILKRVKDIGYIFKEKFAKAVGQGCVEIGSQRYKLGVRLYYRVMESMLKSEEERLSIQNFSKLLNDNIFHMSLLACALEVVMATYSRSTSQNLDSGTDLSFPWILNVLNLKAFDFYKVIESFIKAEGNLTREMIKHLERCEHRIMESLAWLSDSPLFDLIKQSKDREGPTDHLESACPLNLPLQNNHTAADMYLSPVRSPKKKGSTTRVNSTANAETQATSAFQTQKPLKSTSLSLFYKKVYRLAYLRLNTLCERLLSEHPELEHIIWTLFQHTLQNEYELMRDRHLDQIMMCSMYGICKVKNIDLKFKIIVTAYKDLPHAVQETFKRVLIKEEEYDSIIVFYNSVFMQRLKTNILQYASTRPPTLSPIPHIPRSPYKFPSSPLRIPGGNIYISPLKSPYKISEGLPTPTKMTPRSRILVSIGESFGTSEKFQKINQMVCNSDRVLKRSAEGSNPPKPLKKLRFDIEGSDEADGSKHLPGESKFQQKLAEMTSTRTRMQKQKMNDSMDTSNKEEK
# Variants of: B1
# Settings: with hdac1_human HDAC1, Q13547
# hdac1_human HDAC1, Q13547, sequence (Q13547 whole entry): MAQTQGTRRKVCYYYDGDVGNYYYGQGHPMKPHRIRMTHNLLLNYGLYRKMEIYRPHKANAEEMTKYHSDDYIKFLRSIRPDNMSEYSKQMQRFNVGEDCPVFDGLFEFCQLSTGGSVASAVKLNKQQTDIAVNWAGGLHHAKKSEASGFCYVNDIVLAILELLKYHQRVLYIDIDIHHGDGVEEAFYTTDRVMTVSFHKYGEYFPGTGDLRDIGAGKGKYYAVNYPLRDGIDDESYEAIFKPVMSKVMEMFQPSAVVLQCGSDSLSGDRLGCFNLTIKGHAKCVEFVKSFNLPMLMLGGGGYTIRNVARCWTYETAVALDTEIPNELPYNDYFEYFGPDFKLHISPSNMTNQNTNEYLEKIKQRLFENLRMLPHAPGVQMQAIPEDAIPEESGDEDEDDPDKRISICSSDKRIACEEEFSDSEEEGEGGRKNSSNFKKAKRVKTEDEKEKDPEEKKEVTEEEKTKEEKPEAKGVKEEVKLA
row,Variant,effect of a mutation on the interaction
1,C706F,disrupting interaction
